Reference: paper PMC12473165 (2025)

Target: LysdesArg9BK (Homo sapiens, 3H label on peptide)
Test: radioligand binding on HEK293 cells

B1: B1R (protein)
chain: MASSWPPLELQSSNQSQLFPQNATACDNAPEAWDLLHRVLPTFIISICFFGLLGNLFVLLVFLLPRRQLNVAEIYLANLAASDLVFVLGLPFWAENIWNQFNWPFGALLCRVINGVIKANLFISIFLVVAISQDRYRVLVHPMASRRQQRRRQARVTCVLIWVVGGLLSIPTFLLRSIQAVPDLNITACILLLPHEAWHFARIVELNILGFLLPLAAIVFFNYHILASLRTREEVSRTRCGGRKDSKTTALILTLVVAFLVCWAPYHFFAFLEFLFQVQAVRGCFWEDFIDLGLQLANFFAFTNSSLNPVIYVFVGRLFRTKVWELYKQCTPKSLAPISSSHRKEIFQLFWRN
  Kd: 1.3 nM
